Measured values as given in patent US20090220470A1 (CENTRO DE INVESTIGACION COOPERATIVA EN BIOCIENCIAS CIC …, published 2009).
Where no end group is shown, it is not given here.

Legend:
[1] = target: T1, Mono-ubiquitin (Sigma Aldrich) (UniProt P0CG48 1-76); assay: SPR (Biacore), GST fusion captured on anti-GST antibody chip (150-220 RU), mono-ubiquitin injected in a 2-fold dilution series, steady-state fit
Procedure: (§1) (FIG. 4C) Mono-ubiquitin interaction with single and tandem UBA domains from hHR23A and ubiquilin1 was monitored by real-time surface plasmon resonance (SPR).
To measure real-time interactions, all experiments were performed with a BiaCore 3000 instrument, at 25° C., using HBS EP (0.01 B M HEPES pH 7.4, 0.15 M NaCl, 3 mM EDTA, 0.005% surfactant P20) (BiaCore) as running buffer. Anti GST antibody (BiaCore) was covalently immobilized on a CM5 chip (carboxy methylated dextran) from BiaCore with a density of approximately 9000 resonance units (RU≈pg·mm-2), using standard amino-coupling techniques and reagents (NHS, EDC, ethanolamine) from BiaCore. Purified GST-tagged polypeptide comprising ubiquitin binding domains of p62 protein and GST were diluted in running buffer and captured to similar levels in different flow cells. Single and tandem GST-fused UBA domains were captured on the sensor chip at low (30-55 RU) and high (130-220 RU) densities.
All injections were done as randomized duplicates, and each experiment was repeated in triplicate. […] The steady-state responses (Req) were estimated by averaging the signal monitored during the last 15 seconds of each injection.

[2] = target: T1, Mono-ubiquitin (Sigma Aldrich); assay: SPR (BiaCore 3000), captured via GST on anti-GST chip, mono-ubiquitin injected, steady state
Source text: as §1
All injections were done as randomized duplicates, and each experiment was repeated in triplicate. All the experimental profiles were double referenced using the Scrubber 2.0 software (BioLogic Software), i.e. both the signals from a His6-GST-SV5 reference surface and from blank experiments (running buffer instead of protein) were subtracted. The steady-state responses (Req) were estimated by averaging the signal monitored during the last 15 seconds of each injection. The Req values were plotted against the concentration (C) of mono or tetra-ubiquitin and fitted using the following equation:

- Kd [1]: 41.3 µM
- binding stoichiometry (molar ratio ubiquitin:UBA) [2]: 1 ubiquitin per UBA
B1: Ubiquilin1 UBA (single UBA domain, GST-fused) (other)
chain: VNPQLQNPEVRFQQQLEQLSAMGFLNREANLQALIATGGDINAAIERLLGSQPS
modifications: not fully specified (C-terminus); also: GST-fused, PreScission protease site and His6 tag, construct limits not given here
notes: not shown: glutathione-S-transferase (GST) encoded by the pGEX-6P1 vector (Amersham); PreScission protease site and His6 tag with vector linker residues
